1 molecule from paper PMC9256704 (2022) can be followed below.

In this test the target is T1, recombinant TRIB2 protein (TP301210, OriGene), biotinylated (human, UniProt Q92519 1-343, biotinylated).
T1 chain: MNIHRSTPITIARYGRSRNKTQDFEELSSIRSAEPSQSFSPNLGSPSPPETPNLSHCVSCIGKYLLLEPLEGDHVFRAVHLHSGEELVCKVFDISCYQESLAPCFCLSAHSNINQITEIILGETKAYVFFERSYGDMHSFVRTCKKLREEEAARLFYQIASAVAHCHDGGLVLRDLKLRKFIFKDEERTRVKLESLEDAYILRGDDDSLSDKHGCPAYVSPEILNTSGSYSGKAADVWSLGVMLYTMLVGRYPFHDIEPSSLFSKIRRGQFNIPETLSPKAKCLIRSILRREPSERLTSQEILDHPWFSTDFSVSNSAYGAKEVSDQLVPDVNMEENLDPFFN
Kind of test: BLI. (Biolayer interferometry detects binding as a change in optical thickness at a sensor tip.)

B1: PKM2 (ab89364, Abcam) (natural protein)
chain: not shown
One may read the koff as a measure of how fast the partners let go of each other. As to B1, the koff was determined as 0.0175 s⁻¹.
